Test results reported in patent US20190367620A1 (Merck KGaA, published 2019).

What was measured:
[1] = biological target: T1, FGFR1 D2 point mutant H54A (human, UniProt P11362 22-254); assay: SPR as in Example 1.8
T1 chain: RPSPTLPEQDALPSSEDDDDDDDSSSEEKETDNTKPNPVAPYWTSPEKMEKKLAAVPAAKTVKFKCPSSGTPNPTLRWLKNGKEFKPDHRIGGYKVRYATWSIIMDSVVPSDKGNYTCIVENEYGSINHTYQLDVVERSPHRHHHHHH
Description: (§1) Binding affinities of anti-FGFR1 antibodies to FGFR1 were measured by Surface Plasmon Resonance (SPR) using a GE Healthcare BIAcore 4000 instrument as follows. Goat anti-human Fc antibody (Jackson ImmunoResearch Laboratories #109-005-098) was first immobilized on BIAcore carboxymethylated dextran CM5 chip using direct coupling to free amino groups following the procedure described by the manufacturer. Antibodies were then captured on the CM5 biosensor chip to achieve approximately 200 response units (RU). Binding measurements were performed using the running HBS-EP+ buffer. A 2-fold dilution series of His-tagged FGFR1 proteins were injected at a flow rate of 30 μl/min at 25° C. Association rates (kₒₙ, per mol/s) and dissociation rates (koff, per s) were calculated using a simple 1:1 Langmuir binding model (Biacore 4000 Evaluation Software). The equilibrium dissociation constant (KD, mol) was calculated as the ratio of koff/kₒₙ.
(§2) To obtain a finer, residue-level mapping of the epitope and to complement the HD exchange data, molecular modelling and manual inspection of the crystal structure of FGFR1 [(Beenken et al. 2012); PDB record 3OJV] was used to select solvent exposed residues within and around the epitope identified by HD exchange. The selected residues were mutated either to alanine (large to small) or to glycine if the selected residue was alanine. In total 35 point mutants were designed, expressed and purified in HEK cells, and tested for binding to mAb #A08 using surface plasmon resonance as described in Example 1.8. The affinity of the antibody for wild-type and each mutant was determined and used to calculate the contribution of each epitope residue to the binding energy.

[2] = biological target: T2, FGFR1 D2 point mutant A59G (human, UniProt P11362 22-254); assay: SPR as in Example 1.8
T2 chain: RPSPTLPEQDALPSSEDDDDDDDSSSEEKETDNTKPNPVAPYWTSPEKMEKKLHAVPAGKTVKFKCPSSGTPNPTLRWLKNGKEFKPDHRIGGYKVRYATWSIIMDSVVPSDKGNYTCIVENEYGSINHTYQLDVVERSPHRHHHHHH
Description: as §1, §2

[3] = biological target: T3, FGFR1 D2 point mutant T100A (human, UniProt P11362 22-254); assay: SPR as in Example 1.8
T3 chain: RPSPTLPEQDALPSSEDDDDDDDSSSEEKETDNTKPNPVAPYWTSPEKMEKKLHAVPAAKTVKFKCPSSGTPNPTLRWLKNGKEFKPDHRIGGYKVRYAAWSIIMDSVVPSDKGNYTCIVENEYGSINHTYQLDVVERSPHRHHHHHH
Description: as §1, §2

[4] = biological target: T4, Human FGFR1-IIIc D3-His6 (human, UniProt P11362 254-376); assay: SPR (NBD indicates no binding detected)
T4 construct: also called D3 domain; F3FR1c-D3
T4 sequence: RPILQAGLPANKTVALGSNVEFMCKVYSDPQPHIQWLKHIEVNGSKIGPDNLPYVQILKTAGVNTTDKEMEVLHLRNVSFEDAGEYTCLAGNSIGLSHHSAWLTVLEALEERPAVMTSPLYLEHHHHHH

[5] = biological target: T5, FGFR1 D2 point mutant I91A (human, UniProt P11362 22-254); assay: SPR; free energy change relative to wild-type D2
T5 chain: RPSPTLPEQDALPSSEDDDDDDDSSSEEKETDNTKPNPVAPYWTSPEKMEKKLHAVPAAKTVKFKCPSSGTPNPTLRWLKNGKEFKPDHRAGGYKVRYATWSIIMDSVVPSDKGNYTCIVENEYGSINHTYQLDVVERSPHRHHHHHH
Method in brief: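 Point mutants of FGFR1 D2, expressed in HEK cells, were tested by SPR against mAb #A08 captured via anti-human Fc to ~200 RU, in HBS-EP+ at 25° C. KD came from a 1:1 Langmuir fit (koff/kon), and ΔΔG was derived from the ratio of wild-type to mutant KD.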

[6] = biological target: T6, Human FGFR1 D2-His6 (human, UniProt P11362 22-254); assay: ELISA, antibody titrated on FGFR1 Ig-D2, O.D. 450 nm [panel FGFR1 Ig-D2]
T6 construct: also called D2 domain; F3FR1c-D2
T6 sequence: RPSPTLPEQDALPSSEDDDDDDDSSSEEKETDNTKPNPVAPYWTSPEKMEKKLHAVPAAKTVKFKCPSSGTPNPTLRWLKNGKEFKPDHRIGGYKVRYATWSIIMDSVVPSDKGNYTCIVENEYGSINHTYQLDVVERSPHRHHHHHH

[7] = biological target: T7, human FGFR1b-IIIb extracellular domain with a HIS tag (human); assay: ELISA, antibody titrated on huFGFR1b-IIIb, O.D. 450 nm [panel huFGFR1b-IIIb]
T7 construct: also called huFGFR1b-IIIb; hFGFR1b-IIIb
T7 chain: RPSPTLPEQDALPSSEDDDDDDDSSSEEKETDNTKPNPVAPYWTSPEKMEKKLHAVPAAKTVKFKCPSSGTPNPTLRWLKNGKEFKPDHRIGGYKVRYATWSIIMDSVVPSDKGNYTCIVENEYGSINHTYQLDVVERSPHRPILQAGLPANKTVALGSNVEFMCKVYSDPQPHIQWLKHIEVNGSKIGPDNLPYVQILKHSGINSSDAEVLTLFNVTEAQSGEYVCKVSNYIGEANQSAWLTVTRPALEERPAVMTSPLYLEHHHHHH

[8] = biological target: T8, human FGFR1b-IIIc extracellular domain with a HIS tag (human, UniProt P11362 22-376); assay: ELISA, antibody titrated on huFGFR1b-IIIc, O.D. 450 nm [panel huFGFR1b-IIIc]
T8 construct: also called huFGFR1b-IIIc; hFGFR1b-IIIc
T8 sequence: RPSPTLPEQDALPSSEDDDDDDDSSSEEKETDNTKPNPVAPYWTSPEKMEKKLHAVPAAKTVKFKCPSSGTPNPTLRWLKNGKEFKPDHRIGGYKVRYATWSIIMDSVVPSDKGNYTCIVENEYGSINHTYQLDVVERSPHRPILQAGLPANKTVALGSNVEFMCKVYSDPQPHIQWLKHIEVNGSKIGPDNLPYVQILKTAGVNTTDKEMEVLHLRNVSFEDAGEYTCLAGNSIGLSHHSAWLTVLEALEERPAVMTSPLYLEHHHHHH

- Kd [1]: 0.36 nM
- Kd [2]: 3.91 nM
- Kd [3]: 0.24 nM
- binding result [4]: no binding
- ΔΔGmut [5]: 0 kcal/mol
- EC50 (read off the curve) [6]: ~0.04 nM
- EC50 (read off the curve) [7]: ~0.03 nM
- EC50 (read off the curve) [8]: ~0.03 nM
B1: mAb #A08 (antibody, V domains shown)
VH: EVQLQESGPGLVKPSGTLSLTCAVSGGSISSNNWWSWVRQPPGKGLEWIGEIYHSGSTSYNPSLKSRVTISVDKSKNQFSLKLNSVTAADTAVYYCARGTDWFDPWGQGTLVTVSS
VL: QAVLTQPPSVSVAPGQTARITCGGNNIGSESVHWYQQKPGQAPVLVVYDDSDRPSGIPERFSGSNSGNTATLTISRVEAGDEADYYCQVWDSTSDHRVFGGGTKLTVL
notes: Only variable domains are tied to the name mAb #A08 (hit); also called #A08 hit; mAb #08
